Laboratory results: PMC5515580

How the values were obtained:
Recombinant PKA = Recombinant PKA (UniProt P17612)
MAST3-HA (human) = MAST3-HA (human) (UniProt O60307)
Sequence of MAST3-HA (human) (O60307 313-1021): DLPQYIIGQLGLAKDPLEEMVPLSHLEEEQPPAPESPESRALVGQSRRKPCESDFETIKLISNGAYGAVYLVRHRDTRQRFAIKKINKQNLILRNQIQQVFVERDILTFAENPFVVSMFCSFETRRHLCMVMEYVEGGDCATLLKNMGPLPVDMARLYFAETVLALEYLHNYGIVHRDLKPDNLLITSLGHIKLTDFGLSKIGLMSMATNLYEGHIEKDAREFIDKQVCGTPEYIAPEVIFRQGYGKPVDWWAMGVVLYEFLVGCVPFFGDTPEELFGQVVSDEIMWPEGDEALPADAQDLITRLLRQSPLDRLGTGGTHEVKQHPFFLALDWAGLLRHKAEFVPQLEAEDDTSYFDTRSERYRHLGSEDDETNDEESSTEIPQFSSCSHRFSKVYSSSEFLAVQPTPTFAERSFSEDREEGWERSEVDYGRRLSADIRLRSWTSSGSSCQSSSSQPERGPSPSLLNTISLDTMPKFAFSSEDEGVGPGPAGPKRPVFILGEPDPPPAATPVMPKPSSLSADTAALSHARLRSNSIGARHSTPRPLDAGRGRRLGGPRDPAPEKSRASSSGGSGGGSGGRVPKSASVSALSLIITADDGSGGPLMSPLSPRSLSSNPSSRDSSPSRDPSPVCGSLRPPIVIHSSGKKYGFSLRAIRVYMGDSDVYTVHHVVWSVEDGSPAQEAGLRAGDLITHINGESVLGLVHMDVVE

Sequence of 6xHis-ARPP-16 (P56211 17-112): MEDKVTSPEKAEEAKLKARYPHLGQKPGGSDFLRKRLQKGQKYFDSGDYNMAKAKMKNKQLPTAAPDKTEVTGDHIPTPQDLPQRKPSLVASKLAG
Sequence of P-S46-ARPP-16 (P56211 17-112): as above

Row | Km of phosphorylation of Ser88 by PKA (32P incorporation, 10-500 nM substrate; Figure 1d) (Recombinant PKA) | Km of phosphorylation of Ser46 by immunoprecipitated MAST3 (32P incorporation, 10-500 nM substrate, 2 min; Figure 1b) (MAST3-HA (human)) | Km of phosphorylation of Ser46 by immunoprecipitated MAST3 (32P incorporation, 10-500 nM substrate, 2 min; Figure 1—figure supplement 1) (MAST3-HA (human)) | Substance
1 | 0.87 µM | – | – | P-S46-ARPP-16 (from UniProt P56211-2 1-96) (natural protein)
2 | 1.69 µM | 0.09 µM | 0.092 µM | 6xHis-ARPP-16 (from UniProt P56211-2 1-96) (natural protein)
